This is an account of results in patent publication US20260274985A1 (MYTHIC THERAPEUTICS, published 2026).

Test [1] addresses T1, Human TROP2 Protein, His Tag (Acro Biosystems) (human, UniProt P09758 27-274).
T1 construct: Bought protein; also called TACSTD2; not shown: His tag
T1 sequence: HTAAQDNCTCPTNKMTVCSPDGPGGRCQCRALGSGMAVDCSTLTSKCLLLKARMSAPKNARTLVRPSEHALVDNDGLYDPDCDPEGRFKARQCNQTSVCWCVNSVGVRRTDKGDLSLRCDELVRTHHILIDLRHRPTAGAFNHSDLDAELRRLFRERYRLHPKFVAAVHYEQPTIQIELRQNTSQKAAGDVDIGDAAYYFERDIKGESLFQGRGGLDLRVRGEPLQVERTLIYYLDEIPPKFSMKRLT
Nature of the test: BLI (Octet). (In BLI a coated tip is dipped into the sample, and binding shifts an interference pattern.)

Test [2] deals with T2, Human TROP2 Protein, His Tag (human, UniProt P09758 27-274).
T2 construct: Bought protein; also called TACSTD2; not shown: His tag
T2 sequence (looked up): T1 sequence
In words: BLI (Octet).

Numbering of substitutions follows the chain as printed.

B1: MYT12448 (hu7E6SVG variant, LCV substitutions at 93, 94 (Ala at 94)) (antibody, V domains shown)
VH: QVQLQESGPGLVKPSETLSLTCTVSGGSISSYGVHWIRQPPGKGLEWIGVIWTSGVTDYNSALMGRVTISVDTSKNQFSLKLSSVTAADTAVYYCARDGDYDRYTMDYWGQGTLVTVSS
VL: DIVMTQSPDSLAVSLGERATINCRASKSVSTSGYSYMHWYQQKPGQPPKLLIYLASNLESGVPDRFSGSGSGTDFTLTISSLQAEDVAVYYCHASRELPYTFGQGTKLEIK
notes: Full IgG in Expi293 supernatant
As to B1, in test [1], the binding result was “binds”.

B2: MYT12455 (hu7E6SVG variant, LCV substitutions at 59, 60, 94 (Ala at 94)) (antibody, V domains shown)
VH: B1 VH
VL: B1 VL with E59H, S60H, H93Q
notes: as for B1
B2: the binding result in test [1] is listed as “binds”.

B3: MYT12472 (hu7E6SVG variant, LCV substitutions at 93, 97, 101) (antibody, V domains shown)
VH: B1 VH
VL: B1 VL with A94H, E97H, T101H
notes: as for B1
B3: the binding result in test [1] is “binds”.

B4: MYT12453 (hu7E6SVG variant, LCV substitutions at 97, 101) (antibody, V domains shown)
VH: B1 VH
VL: B1 VL with H93Q, A94H, E97H, T101H
notes: as for B1
In the case of B4, the binding result in test [1] is recorded as “binds”.

B5: MYT12449 (hu7E6SVG variant, LCV substitutions at 93, 97) (antibody, V domains shown)
VH: B1 VH
VL: B1 VL with A94H, E97H
notes: as for B1
B5: the binding result in test [1] is “binds”.

B6: MYT12466 (hu7E6SVG variant, LCV substitutions at 60, 93, 101) (antibody, V domains shown)
VH: B1 VH
VL: B1 VL with S60H, A94H, T101H
notes: as for B1
On to B6, for which, in test [1], the binding result is on record as “binds”.

B7: MYT12451 (hu7E6SVG variant, LCV substitutions at 94, 97 (Ala at 94)) (antibody, V domains shown)
VH: B1 VH
VL: B1 VL with H93Q, E97H
notes: as for B1
For B7, the binding result in test [1] was “binds”.

B8: MYT12454 (hu7E6SVG variant, LCV substitutions at 59, 60, 93) (antibody, V domains shown)
VH: B1 VH
VL: B1 VL with E59H, S60H, A94H
notes: as for B1
For the molecule B8, the binding result in test [1] is “binds”.

B9: MYT12469 (hu7E6SVG variant, LCV substitutions at 60, 97, 101) (antibody, V domains shown)
VH: B1 VH
VL: B1 VL with S60H, H93Q, A94H, E97H, T101H
notes: as for B1
Regarding B9, the binding result in test [1] is given as “binds”.

B10: MYT12450 (hu7E6SVG variant, LCV substitutions at 93, 101) (antibody, V domains shown)
VH: B1 VH
VL: B1 VL with A94H, T101H
notes: as for B1
In the case of B10, in test [1], the binding result is on record as “binds”.

B11: MYT11636 (antibody, V domains shown)
VH: QVQLVQSGAEVKKPGASVKVSCKASHYTFTTAGMQWVRQAPGQGLEWMGWINTHSGVPKYAEDFKGRVTISADTSTSTAYLQLSSLKSEDTAVYYCARSGFGSSYWYFDVWGQGTLVTVSS
VL: DIQMTQSPSSLSASVGDRVTITCKASQDVSTAVAWYQQKPGKAPKLLIYSASYRYTGVPSRFSGSGSGTDFTLTISSLQPEDFAVYYCQQHYITPLTFGQGTKLEIK
notes: IgG from supernatant; His at HCV position 26; also called datopotamab variant H1 01
Take B11: in test [2], the binding result is “binds”.

B12: MYT11659 (antibody, V domains shown)
VH: B11 VH with H26G, D63H
VL: B11 VL
notes: IgG from supernatant; His at HCV position 63; also called datopotamab variant H2 14
Consider B12, for which, in test [2], the binding result was “binds”.

B13: MYT11675 (antibody, V domains shown)
VH: B11 VH with H26G, D109H
VL: B11 VL
With B13, in test [2], the binding result is “binds”.

B14: MYT11661 (antibody, V domains shown)
VH: B11 VH with H26G, K65H
VL: B11 VL
notes: IgG from supernatant; His at HCV position 65; also called datopotamab variant H2 16
Consider B14, for which the binding result in test [2] is “binds”.

B15: MYT11656 (antibody, V domains shown)
VH: B11 VH with H26G, Y60H
VL: B11 VL
notes: IgG from supernatant; His at HCV position 60; also called datopotamab variant H2 11
On to B15, for which, in test [2], the binding result is “binds”.

B16: MYT11664 (antibody, V domains shown)
VH: B11 VH with H26G, R98H
VL: B11 VL
notes: IgG from supernatant; His at HCV position 98; also called datopotamab variant H3 02
Turning to B16, in test [2], the binding result is recorded as “binds”.

B17: MYT11662 (antibody, V domains shown)
VH: B11 VH with H26G, G66H
VL: B11 VL
notes: IgG from supernatant; His at HCV position 66; also called datopotamab variant H2 17
As for B17, in test [2], the binding result is “binds”.

B18: MYT11641 (antibody, V domains shown)
VH: B11 VH with H26G, T31H
VL: B11 VL
notes: IgG from supernatant; His at HCV position 31; also called datopotamab variant H1 06
Take B18: in test [2], the binding result is reported as “binds”.

B19: MYT11658 (antibody, V domains shown)
VH: B11 VH with H26G, E62H
VL: B11 VL
notes: IgG from supernatant; His at HCV position 62; also called datopotamab variant H2 13
As to B19, in test [2], the binding result is recorded as “binds”.

B20: MYT11648 (antibody, V domains shown)
VH: B11 VH with H26G, N52H
VL: B11 VL
notes: IgG from supernatant; His at HCV position 52; also called datopotamab variant H2 03
On to B20, for which the binding result in test [2] is “binds”.

B21: MYT11640 (antibody, V domains shown)
VH: B11 VH with H26G, T30H
VL: B11 VL
notes: IgG from supernatant; His at HCV position 30; also called datopotamab variant H1 05
In the case of B21, the binding result in test [2] was “binds”.

B22: MYT11654 (antibody, V domains shown)
VH: B11 VH with H26G, P58H
VL: B11 VL
notes: IgG from supernatant; His at HCV position 58; also called datopotamab variant H2 09
B22: the binding result in test [2] was “binds”.

B23: MYT11652 (antibody, V domains shown)
VH: B11 VH with H26G, G56H
VL: B11 VL
notes: IgG from supernatant; His at HCV position 56; also called datopotamab variant H2 07
Regarding B23, the binding result in test [2] is given as “binds”.

B24: MYT11644 (antibody, V domains shown)
VH: B11 VH with H26G, M34H
VL: B11 VL
notes: IgG from supernatant; His at HCV position 34; also called datopotamab variant H1 09
For B24, the binding result in test [2] is recorded as “binds”.

B25: MYT11639 (antibody, V domains shown)
VH: B11 VH with H26G, F29H
VL: B11 VL
notes: IgG from supernatant; His at HCV position 29; also called datopotamab variant H1 04
With B25, the binding result in test [2] is given as “binds”.

B26: MYT11647 (antibody, V domains shown)
VH: B11 VH with H26G, I51H
VL: B11 VL
notes: IgG from supernatant; His at HCV position 51; also called datopotamab variant H2 02
For B26, the binding result in test [2] is “binds”.

B27: MYT11646 (antibody, V domains shown)
VH: B11 VH with H26G, W50H
VL: B11 VL
notes: IgG from supernatant; His at HCV position 50; also called datopotamab variant H2 01
As to B27, in test [2], the binding result is listed as “binds”.

B28: MYT11660 (antibody, V domains shown)
VH: B11 VH with H26G, F64H
VL: B11 VL
notes: IgG from supernatant; His at HCV position 64; also called datopotamab variant H2 15
Turning to B28, the binding result in test [2] is recorded as “binds”.

B29: MYT11667 (antibody, V domains shown)
VH: B11 VH with H26G, F101H
VL: B11 VL
notes: IgG from supernatant; His at HCV position 101; also called datopotamab variant H3 05
For the molecule B29, in test [2], the binding result is listed as “binds”.

B30: MYT11649 (antibody, V domains shown)
VH: B11 VH with H26G, T53H
VL: B11 VL
notes: IgG from supernatant; His at HCV position 53; also called datopotamab variant H2 04
For the molecule B30, the binding result in test [2] is “binds”.

B31: MYT11638 (antibody, V domains shown)
VH: B11 VH with H26G, T28H
VL: B11 VL
notes: IgG from supernatant; His at HCV position 28; also called datopotamab variant H1 03
Take B31: the binding result in test [2] is reported as “binds”.

B32: MYT11655 (antibody, V domains shown)
VH: B11 VH with H26G, K59H
VL: B11 VL
notes: IgG from supernatant; His at HCV position 59; also called datopotamab variant H2 10
As to B32, in test [2], the binding result was “binds”.

B33: MYT11674 (antibody, V domains shown)
VH: B11 VH with H26G, F108H
VL: B11 VL
notes: IgG from supernatant; also called datopotamab variant H3 12
Turning to B33, the binding result in test [2] was “binds”.

B34: MYT11651 (antibody, V domains shown)
VH: B11 VH with H26G, S55H
VL: B11 VL
notes: IgG from supernatant; His at HCV position 55; also called datopotamab variant H2 06
With B34, the binding result in test [2] is recorded as “binds”.

B35: MYT11650 (antibody, V domains shown)
VH: B11 VH with H26G, H54A
VL: B11 VL
notes: IgG from supernatant; Ala at HCV position 54 (starting residue His); also called datopotamab variant H2 05
Regarding B35, the binding result in test [2] was “binds”.

B36: MYT11653 (antibody, V domains shown)
VH: B11 VH with H26G, V57H
VL: B11 VL
notes: IgG from supernatant; His at HCV position 57; also called datopotamab variant H2 08
With B36, the binding result in test [2] was “binds”.

B37: MYT11642 (antibody, V domains shown)
VH: B11 VH with H26G, A32H
VL: B11 VL
notes: IgG from supernatant; His at HCV position 32; also called datopotamab variant H1 07
Regarding B37, the binding result in test [2] is listed as “binds”.

B38: MYT11637 (antibody, V domains shown)
VH: B11 VH with H26G, Y27H
VL: B11 VL
notes: IgG from supernatant; His at HCV position 27; also called datopotamab variant H1 02
Take B38: in test [2], the binding result is “binds”.

B39: MYT11673 (antibody, V domains shown)
VH: B11 VH with H26G, Y107H
VL: B11 VL
notes: IgG from supernatant; also called datopotamab variant H3 11
B39: the binding result in test [2] is “binds”.

B40: MYT11657 (antibody, V domains shown)
VH: B11 VH with H26G, A61H
VL: B11 VL
notes: IgG from supernatant; His at HCV position 61; also called datopotamab variant H2 12
Consider B40, for which the binding result in test [2] was “binds”.
